The source of these data is US20210309747A1 (I MAB BIOPHARMA US, published 2021).

Experiment [1] has as its target T1, human PD-L1 on Raji cells (human, UniProt Q9NZQ7 19-290).
T1 construct: whole, on cells; also called Raji-PD-L1 cells; Raji-PDL1 cells
Description: flow cytometry blocking assay on Raji-PDL1 cells; blocked ligand: biotinylated Avi- and His-tag human PD1 protein at 3 ug/mL, Streptavidin-PE, MFI. Here is the method: Raji cells over-expressing human PDL1 were seeded into the 96 well plate at a concentration of 1×10⁵ cells per well. […] Fluorescence was measured by flow cytometry and analyzed by Flowjo software to determine the mean fluorescence intensities (MFI).

The target in experiment [2] is T2, His-tagged human PD-L1 (human, UniProt Q9NZQ7 19-238, limits assumed).
T2 construct: also called Human PD-L1 protein; Human PDL1-His; not shown: His tag
Description: SPR, Biacore T200; B12-01 captured on protein A chip, human PD-L1 25 nM-1.56 nM injected. From the text: (§1) The ligand was allowed to associate for 120 s and dissociate for 600 s.
On the technique in general: In SPR one partner is held on a chip, and binding of the other changes the refractive index at the surface.

Experiment [3] concerns the target T2, His-tagged human PD-L1. The experiment is described as follows: Biacore T200 SPR, B12-01 captured on a protein A chip, human PD-L1-His injected at 25 nM-1.56 nM.
Excerpt: as §1

Experiment [4] addresses T1, human PD-L1 on Raji cells. The experiment is described as follows: cell-based or functional assay.
In experiment [5] the target is T2, His-tagged human PD-L1. The experiment is described as follows: ELISA, plate coated with PDL1-His at 0.5 ug/ml, detection with HRP mouse anti-human IgG Fc, OD 450nm. The method, then:
(§2) Human, cyno, rat and mouse PDL1-His proteins were coated at 0.5 μg/ml at 4° C. overnight. […] The plates were washed and then incubated with HRP conjugated mouse anti-human IgG Fc antibody followed by development with TMB substrate and analyzed by spectrophotometer at OD 450 nm.
On the technique in general: An ELISA detects its analyte on a solid surface through an enzyme-linked reagent.

Experiment [6] addresses cyno PDL1-His (cyno, UniProt G7PSE7 19-238). The description is as above. The method, then: as §2
In experiment [7] the target is rat PDL1-His (rat, UniProt D4AE25 19-239). Description: ELISA, PDL1-His coated at 0.5 µg/ml. Here is the method:
as §2

Experiment [8] concerns the target T3, mouse PDL1-His (mouse, UniProt Q9EP73 19-238, limits assumed).
T3 construct: not shown: His tag
Description: ELISA, PDL1-His coated at 0.5 µg/ml. Here is the method:
as §2

T2 sequence (Q9NZQ7 19-238 limits assumed): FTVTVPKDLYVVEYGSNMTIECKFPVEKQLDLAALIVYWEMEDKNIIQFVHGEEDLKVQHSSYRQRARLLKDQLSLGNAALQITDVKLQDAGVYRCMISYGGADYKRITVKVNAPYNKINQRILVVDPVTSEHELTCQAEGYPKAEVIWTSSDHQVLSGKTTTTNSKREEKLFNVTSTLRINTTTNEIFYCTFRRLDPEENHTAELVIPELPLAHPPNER
T1 sequence (Q9NZQ7 19-290): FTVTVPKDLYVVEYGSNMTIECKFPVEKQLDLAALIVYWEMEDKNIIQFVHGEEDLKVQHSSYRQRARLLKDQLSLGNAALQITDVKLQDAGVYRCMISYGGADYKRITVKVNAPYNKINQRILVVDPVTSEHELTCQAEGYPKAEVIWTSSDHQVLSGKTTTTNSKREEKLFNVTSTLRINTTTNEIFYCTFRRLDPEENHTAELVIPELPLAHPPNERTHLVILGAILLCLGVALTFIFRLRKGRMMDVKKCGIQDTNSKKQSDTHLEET
T3 sequence (Q9EP73 19-238 limits assumed): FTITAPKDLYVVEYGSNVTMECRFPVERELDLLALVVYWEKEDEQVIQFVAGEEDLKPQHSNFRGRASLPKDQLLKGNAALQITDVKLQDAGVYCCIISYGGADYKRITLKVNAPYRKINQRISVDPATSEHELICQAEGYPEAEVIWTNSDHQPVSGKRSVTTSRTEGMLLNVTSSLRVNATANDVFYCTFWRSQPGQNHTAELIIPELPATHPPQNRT
Sequence of cyno PDL1-His (G7PSE7 entry or part of it limits assumed): as the sequence (Q9NZQ7 19-238 limits assumed) above, with A33T, A34S, S62N, R68Q, Q82R, F173L, T185A, T192I, H215L counted along it
Sequence of rat PDL1-His (D4AE25 entry or part of it limits assumed): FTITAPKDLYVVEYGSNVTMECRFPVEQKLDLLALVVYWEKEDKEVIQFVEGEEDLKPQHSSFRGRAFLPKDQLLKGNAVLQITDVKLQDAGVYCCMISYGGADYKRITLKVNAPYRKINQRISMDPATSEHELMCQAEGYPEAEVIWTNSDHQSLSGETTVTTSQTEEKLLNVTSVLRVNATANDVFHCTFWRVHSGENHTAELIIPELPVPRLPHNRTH

B1: B12-01 (antibody, V domains shown)
VH: QVQLLESGGGLVQPGGSLRLSCAASGFTFSSYWMSWVRQAPGKGLEWVANIKQDGSEKYYVDSVKGRFTISRDNAKNSLYLQMNSLRAEDTAVYYCARVALWDDAFDIWGQGTMVTVSS
VL: DIQMTQSPSTLSASVGDRVIITCRASRGISSWLAWYQQKPGKAPNLLISKASSLESGVPSRFSGSGSGTDFTLTISSLQPEDFATYYCQQSSSIPLTFGGGTKVEIK
notes: Variant of B12 with serine at the C-terminus of VH and DIQM at the N-terminus of VL; captured on protein A and detected with anti-human IgG Fc, so a human IgG; also called B12-01 antibody
B1: the midpoint of the response in experiment [1], the EC50, lay at 0.14 nM. The same molecule showed a Kd in experiment [2] of 0.948 nM. This molecule displayed a koff in experiment [3] of 0.000795 s⁻¹. Also, the kon in experiment [3] was 838000 M⁻¹ s⁻¹. Also, the “EC50, NF-AT-luciferase activity, PD-1 Jurkat cells with Raji-PD-L1 cells” value in experiment [4] is 0.098 nM. Moreover, the “EC50 (read off the curve)” value in experiment [5] is ~0.03 nM; in experiment [6], ~0.04 nM. In addition, the binding result in experiment [7] and in experiment [8] was “no binding” in each case.

The EC50 is the concentration at which the effect is half-maximal. Higher therefore signals lower potency in that assay. A word on the Kd: it is the concentration at which binding is half-saturated. The low end stands for higher affinity, the high end for lower affinity. One may read the koff as a measure of how fast the partners let go of each other. A higher koff goes with a short-lived complex. Broadly, the kon is the second-order rate constant of association. Low readings indicate slower complex formation, high ones faster complex formation. As a reminder, the EC50 (read off the curve) is the concentration needed to bring the measured effect to its halfway point. Low readings indicate a more potent agent, high ones a less potent agent.
